B1: NEDD4 family-interacting protein 1 (Mus musculus), Q8R0W6 (parent)
chain: MALALAALAAVEPACGSGYQQLQNEEEPGEPEQTAGDAPPPYSSITAESAAYFDYKDESGFPKPPSYNVATTLPSYDEAERTKTEATIPLVPGRDEDFVGRDDFDDTDQLRIGNDGIFMLTFFMAFLFNWIGFFLSFCLTTSAAGRYGAISGFGLSLIKWILIVRFSTYFPGYFDGQYWLWWVFLVLGFLLFLRGFINYAKVRKMPETFSNLPRTRVLFIY
B2: RING finger protein 11 (Mus musculus), Q9QYK7 (parent)
chain: MGNCLKSPTSDDISLLHESQSDRASFGEGTEPDQEPPPPYQEQVPVPIYHPTPSQTRLATQLTEEEQIRIAQRIGLIQHLPKGVYDPGRDGSEKKIRECVICMMDFVYGDPIRFLPCMHIYHLDCIDDWLMRSFTCPSCMEPVDAALLSSYETN
B3: WW domain-binding protein 2 (Mus musculus), P97765 (parent)
chain: MALNKNHSEGGGVIVNNTESILMSYDHVELTFNDMKNVPEAFKGTKKGTVYLTPYRVIFLSKGKDAMQSFMMPFYLMKDCEIKQPVFGANFIKGIVKAEAGGGWEGSASYKLTFTAGGAIEFGQRMLQVASQASRGEVPNGAYGYPYMPSGAYVFPPPVANGMYPCPPGYPYPPPPPEFYPGPPMMDGAMGYVQPPPPPYPGPMEPPVSGPSAPATPAAEAKAAEAAASAYYNPGNPHNVYMPTSQPPPPPYYPPEDKKTQ
B4: Protein TMEPAI (Mus musculus), Q9D7R2 (parent)
chain: MSPARATAQRSLFPSMEITELEFVQIVVIVVVMMVMVVMITCLLSHYKLSARSFISRHSQARRRDDGLSSEGCLWPSESTVSGGMPEPQVYAPPRPTDRLAVPPFIQRSRFQPTYPYLQHEIALPPTISLSDGEEPPPYQGPCTLQLRDPEQQLELNRESVRAPPNRTIFDSDLIDSTMLGGPCPPSSNSGISATCYSSGGRMEGPPPTYSEVIGHYPGSSFQHQQSNGPSSLLEGTRLHHSHIAPLENKEKEKQKGHPL
B5: WW domain-binding protein 1 (Mus musculus), P97764 (parent)
chain: MARASSRNSSEEAWGSLQAPQQQQSPAASSLEGAIWRRAGTQTRALDTILYHPQQSHLLRELCPGVNTQPYLCETGHCCGETGCCTYYYELWWFWLLWTVLILFSCCCAFRHRRAKLRLQQQQRQREINLLAYHGACHGAGPVPTGSLLDLRLLSAFKPPAYEDVVHHPGTPPPPYTVGPGYPWTTSSECTRCSSESSCSAHLEGTNVEGVSSQQSALPHQEGEPRAGLSPVHIPPSCRYRRLTGDSGIELCPCPDSSEGEPLKEARASASQPDLEDHSPCALPPDSVSQVPPMGLASSCGDIP
B6: Protein BEAN1 (Mus musculus), Q9EQG5 (parent)
chain: MSFKRPCPLARYNRTSYFYPTTFSESSEHSHLLVSPVLVASAVIGVVITLSCITIIVGSIRRDRQARIQRHHHRHRRHHHHHRHRRRRHREYASGGHTHSRSSPRMPYACSPAEDWPPPLDVSSEGDVDVTVLWELYPDSPPGYEECMGPGATQLYVPTDAPPPYSMTDSCPRLNGALDSDSGQSRSHRQQEQRTQGQSRLHTVSMDTLPPYEAVCGTGSPSDLLPLPGPEPWPSNSQGSPIPTQAPMPSPERIV
B7: Lipopolysaccharide-induced tumor necrosis factor-alpha factor homolog (Mus musculus), Q9JLJ0 (parent)
chain: MSAPGPYQAAAGPSVVPTAPPTYEETVGVNSYYPTPPAPMPGPATGLITGPDGKGMNPPSYYTQPVPVPNANAIAVQTVYVQQPVSFYDRPVQMCCPSCSKMIVTQLSYNAGALTWLSCGSLCLLGCVAGCCFIPFCVDALQDVDHYCPNCKALLGTYKRL

Variants of: B1
Details: with nedd4_mouse Nedd4, P46935
Target sequence in this assay (P46935 whole entry): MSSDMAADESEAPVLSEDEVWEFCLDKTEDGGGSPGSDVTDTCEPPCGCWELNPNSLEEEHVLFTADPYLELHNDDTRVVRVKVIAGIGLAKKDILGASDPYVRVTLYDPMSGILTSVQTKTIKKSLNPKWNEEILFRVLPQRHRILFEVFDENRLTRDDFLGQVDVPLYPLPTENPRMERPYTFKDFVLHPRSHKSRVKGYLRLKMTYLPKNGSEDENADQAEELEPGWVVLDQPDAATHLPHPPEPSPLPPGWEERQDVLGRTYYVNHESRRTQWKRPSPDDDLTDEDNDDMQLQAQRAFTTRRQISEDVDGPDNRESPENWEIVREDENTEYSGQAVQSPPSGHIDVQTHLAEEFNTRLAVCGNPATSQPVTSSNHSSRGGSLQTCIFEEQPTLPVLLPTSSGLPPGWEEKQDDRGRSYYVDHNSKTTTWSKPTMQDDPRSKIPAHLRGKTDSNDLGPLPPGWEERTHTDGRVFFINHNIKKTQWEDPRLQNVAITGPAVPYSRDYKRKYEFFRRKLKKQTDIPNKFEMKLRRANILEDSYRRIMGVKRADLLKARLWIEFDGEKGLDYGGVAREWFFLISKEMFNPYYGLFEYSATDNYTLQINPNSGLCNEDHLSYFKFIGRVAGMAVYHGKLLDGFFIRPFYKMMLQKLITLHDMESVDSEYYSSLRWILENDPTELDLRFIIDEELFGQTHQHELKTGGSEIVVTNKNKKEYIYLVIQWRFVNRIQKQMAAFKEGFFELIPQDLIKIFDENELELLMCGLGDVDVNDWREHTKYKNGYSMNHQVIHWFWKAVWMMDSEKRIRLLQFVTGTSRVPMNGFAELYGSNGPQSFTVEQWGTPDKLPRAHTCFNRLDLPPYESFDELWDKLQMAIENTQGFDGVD

effect of a mutation on the interaction | Variant
decreasing interaction strength | MALALAALAAVEPACGSGYQQLQNEEEPGEPEQTAGDAPPPASSITAESAAYFDYKDESGFPKPPSYNVATTLPSYDEAERTKTEATIPLVPGRDEDFVGRDDFDDTDQLRIGNDGIFMLTFFMAFLFNWIGFFLSFCLTTSAAGRYGAISGFGLSLIKWILIVRFSTYFPGYFDGQYWLWWVFLVLGFLLFLRGFINYAKVRKMPETFSNLPRTRVLFIY [Y42A]

Variants of: B2
Details: with nedd4_mouse Nedd4, P46935
Target sequence in this assay (P46935 whole entry): as the sequence (P46935 whole entry) above

effect of a mutation on the interaction | Variant
disrupting interaction | MGNCLKSPTSDDISLLHESQSDRASFGEGTEPDQEPPPPAQEQVPVPIYHPTPSQTRLATQLTEEEQIRIAQRIGLIQHLPKGVYDPGRDGSEKKIRECVICMMDFVYGDPIRFLPCMHIYHLDCIDDWLMRSFTCPSCMEPVDAALLSSYETN

Variants of: B2
Details: with nedd4_mouse Nedd4, P46935
Remark: another data set of the same source
Target sequence in this assay (P46935 whole entry): as the sequence (P46935 whole entry) above

effect of a mutation on the interaction | Variant
disrupting interaction strength | MGNCLKSPTSDDISLLHESQSDRASFGEGTEPDQEPPPPAQEQVPVPIYHPTPSQTRLATQLTEEEQIRIAQRIGLIQHLPKGVYDPGRDGSEKKIRECVICMMDFVYGDPIRFLPCMHIYHLDCIDDWLMRSFTCPSCMEPVDAALLSSYETN

Variants of: B3
Details: with nedd4_mouse Nedd4, P46935
Target sequence in this assay (P46935 whole entry): as the sequence (P46935 whole entry) above

effect of a mutation on the interaction | Variant
decreasing interaction strength | MALNKNHSEGGGVIVNNTESILMSYDHVELTFNDMKNVPEAFKGTKKGTVYLTPYRVIFLSKGKDAMQSFMMPFYLMKDCEIKQPVFGANFIKGIVKAEAGGGWEGSASYKLTFTAGGAIEFGQRMLQVASQASRGEVPNGAYGYPYMPSGAYVFPPPVANGMYPCPPGYPYPPPPPEFYPGPPMMDGAMGYVQPPPPPAPGPMEPPVSGPSAPATPAAEAKAAEAAASAYYNPGNPHNVYMPTSQPPPPPYYPPEDKKTQ [Y200A]

Variants of: B3
Details: with nedd4_mouse Nedd4, P46935
Remark: another data set of the same source
Target sequence in this assay (P46935 whole entry): as the sequence (P46935 whole entry) above

effect of a mutation on the interaction | Variant
decreasing interaction strength | MALNKNHSEGGGVIVNNTESILMSYDHVELTFNDMKNVPEAFKGTKKGTVYLTPYRVIFLSKGKDAMQSFMMPFYLMKDCEIKQPVFGANFIKGIVKAEAGGGWEGSASYKLTFTAGGAIEFGQRMLQVASQASRGEVPNGAYGYPYMPSGAYVFPPPVANGMYPCPPGYPYPPPPPEFYPGPPMMDGAMGYVQPPPPPAPGPMEPPVSGPSAPATPAAEAKAAEAAASAYYNPGNPHNVYMPTSQPPPPPYYPPEDKKTQ [Y200A]

Variants of: B3
Details: with nedd4_mouse Nedd4, P46935
Remark: another data set of the same source
Target sequence in this assay (P46935 whole entry): as the sequence (P46935 whole entry) above

effect of a mutation on the interaction | Variant
disrupting interaction strength | MALNKNHSEGGGVIVNNTESILMSYDHVELTFNDMKNVPEAFKGTKKGTVYLTPYRVIFLSKGKDAMQSFMMPFYLMKDCEIKQPVFGANFIKGIVKAEAGGGWEGSASYKLTFTAGGAIEFGQRMLQVASQASRGEVPNGAYGYPYMPSGAYVFPPPVANGMYPCPPGYPYPPPPPEFYPGPPMMDGAMGYVQPPPPPAPGPMEPPVSGPSAPATPAAEAKAAEAAASAYYNPGNPHNVYMPTSQPPPPPYYPPEDKKTQ [Y200A]

Variants of: B3
Details: with nedd4_mouse Nedd4, P46935
Remark: another data set of the same source

effect of a mutation on the interaction | Variant
decreasing interaction strength | MALNKNHSEGGGVIVNNTESILMSYDHVELTFNDMKNVPEAFKGTKKGTVYLTPYRVIFLSKGKDAMQSFMMPFYLMKDCEIKQPVFGANFIKGIVKAEAGGGWEGSASYKLTFTAGGAIEFGQRMLQVASQASRGEVPNGAYGYPYMPSGAYVFPPPVANGMYPCPPGYPYPPPPPEFYPGPPMMDGAMGYVQPPPPPYPGPMEPPVSGPSAPATPAAEAKAAEAAASAYYNPGNPHNVYMPTSQPPPPPAYPPEDKKTQ [Y252A]

Variants of: B4
Details: with nedd4_mouse Nedd4, P46935

effect of a mutation on the interaction | Variant
disrupting interaction strength | MSPARATAQRSLFPSMEITELEFVQIVVIVVVMMVMVVMITCLLSHYKLSARSFISRHSQARRRDDGLSSEGCLWPSESTVSGGMPEPQVYAPPRPTDRLAVPPFIQRSRFQPTYPYLQHEIALPPTISLSDGEEPPPYQGPCTLQLRDPEQQLELNRESVRAPPNRTIFDSDLIDSTMLGGPCPPSSNSGISATCYSSGGRMEGPPPTASEVIGHYPGSSFQHQQSNGPSSLLEGTRLHHSHIAPLENKEKEKQKGHPL [Y210A]

Variants of: B4
Details: with nedd4_mouse Nedd4, P46935
Remark: another data set of the same source

effect of a mutation on the interaction | Variant
disrupting interaction strength | MSPARATAQRSLFPSMEITELEFVQIVVIVVVMMVMVVMITCLLSHYKLSARSFISRHSQARRRDDGLSSEGCLWPSESTVSGGMPEPQVYAPPRPTDRLAVPPFIQRSRFQPTYPYLQHEIALPPTISLSDGEEPPPYQGPCTLQLRDPEQQLELNRESVRAPPNRTIFDSDLIDSTMLGGPCPPSSNSGISATCYSSGGRMEGPPPTASEVIGHYPGSSFQHQQSNGPSSLLEGTRLHHSHIAPLENKEKEKQKGHPL [Y210A]

Variants of: B4
Details: with nedd4_mouse Nedd4, P46935
Remark: another data set of the same source

effect of a mutation on the interaction | Variant
decreasing interaction strength | MSPARATAQRSLFPSMEITELEFVQIVVIVVVMMVMVVMITCLLSHYKLSARSFISRHSQARRRDDGLSSEGCLWPSESTVSGGMPEPQVYAPPRPTDRLAVPPFIQRSRFQPTYPYLQHEIALPPTISLSDGEEPPPAQGPCTLQLRDPEQQLELNRESVRAPPNRTIFDSDLIDSTMLGGPCPPSSNSGISATCYSSGGRMEGPPPTYSEVIGHYPGSSFQHQQSNGPSSLLEGTRLHHSHIAPLENKEKEKQKGHPL [Y139A]

Variants of: B5
Details: with nedd4_mouse Nedd4, P46935

effect of a mutation on the interaction | Variant
disrupting interaction strength | MARASSRNSSEEAWGSLQAPQQQQSPAASSLEGAIWRRAGTQTRALDTILYHPQQSHLLRELCPGVNTQPYLCETGHCCGETGCCTYYYELWWFWLLWTVLILFSCCCAFRHRRAKLRLQQQQRQREINLLAYHGACHGAGPVPTGSLLDLRLLSAFKPPAYEDVVHHPGTPPPPATVGPGYPWTTSSECTRCSSESSCSAHLEGTNVEGVSSQQSALPHQEGEPRAGLSPVHIPPSCRYRRLTGDSGIELCPCPDSSEGEPLKEARASASQPDLEDHSPCALPPDSVSQVPPMGLASSCGDIP [Y176A]

Variants of: B5
Details: with nedd4_mouse Nedd4, P46935
Remark: another data set of the same source

effect of a mutation on the interaction | Variant
disrupting interaction strength | MARASSRNSSEEAWGSLQAPQQQQSPAASSLEGAIWRRAGTQTRALDTILYHPQQSHLLRELCPGVNTQPYLCETGHCCGETGCCTYYYELWWFWLLWTVLILFSCCCAFRHRRAKLRLQQQQRQREINLLAYHGACHGAGPVPTGSLLDLRLLSAFKPPAAEDVVHHPGTPPPPYTVGPGYPWTTSSECTRCSSESSCSAHLEGTNVEGVSSQQSALPHQEGEPRAGLSPVHIPPSCRYRRLTGDSGIELCPCPDSSEGEPLKEARASASQPDLEDHSPCALPPDSVSQVPPMGLASSCGDIP [Y162A]

Variants of: B6
Details: with nedd4_mouse Nedd4, P46935

effect of a mutation on the interaction | Variant
disrupting interaction strength | MSFKRPCPLARYNRTSYFYPTTFSESSEHSHLLVSPVLVASAVIGVVITLSCITIIVGSIRRDRQARIQRHHHRHRRHHHHHRHRRRRHREYASGGHTHSRSSPRMPYACSPAEDWPPPLDVSSEGDVDVTVLWELYPDSPPGYEECMGPGATQLYVPTDAPPPASMTDSCPRLNGALDSDSGQSRSHRQQEQRTQGQSRLHTVSMDTLPPYEAVCGTGSPSDLLPLPGPEPWPSNSQGSPIPTQAPMPSPERIV [Y165A]
disrupting interaction strength | MSFKRPCPLARYNRTSYFYPTTFSESSEHSHLLVSPVLVASAVIGVVITLSCITIIVGSIRRDRQARIQRHHHRHRRHHHHHRHRRRRHREYASGGHTHSRSSPRMPYACSPAEDWPPPLDVSSEGDVDVTVLWELYPDSPPGAEECMGPGATQLYVPTDAPPPYSMTDSCPRLNGALDSDSGQSRSHRQQEQRTQGQSRLHTVSMDTLPPYEAVCGTGSPSDLLPLPGPEPWPSNSQGSPIPTQAPMPSPERIV [Y144A]
disrupting interaction strength | MSFKRPCPLARYNRTSYFYPTTFSESSEHSHLLVSPVLVASAVIGVVITLSCITIIVGSIRRDRQARIQRHHHRHRRHHHHHRHRRRRHREYASGGHTHSRSSPRMPYACSPAEDWPPPLDVSSEGDVDVTVLWELYPDSPPGAEECMGPGATQLYVPTDAPPPASMTDSCPRLNGALDSDSGQSRSHRQQEQRTQGQSRLHTVSMDTLPPYEAVCGTGSPSDLLPLPGPEPWPSNSQGSPIPTQAPMPSPERIV [Y144A;Y165A]

Variants of: B6
Details: with nedd4_mouse Nedd4, P46935
Remark: another data set of the same source

effect of a mutation on the interaction | Variant
disrupting interaction strength | MSFKRPCPLARYNRTSYFYPTTFSESSEHSHLLVSPVLVASAVIGVVITLSCITIIVGSIRRDRQARIQRHHHRHRRHHHHHRHRRRRHREYASGGHTHSRSSPRMPYACSPAEDWPPPLDVSSEGDVDVTVLWELYPDSPPGAEECMGPGATQLYVPTDAPPPASMTDSCPRLNGALDSDSGQSRSHRQQEQRTQGQSRLHTVSMDTLPPYEAVCGTGSPSDLLPLPGPEPWPSNSQGSPIPTQAPMPSPERIV [Y144A;Y165A]

Variants of: B7
Details: with nedd4_mouse Nedd4, P46935

effect of a mutation on the interaction | Variant
disrupting interaction strength | Y23A

Reference: IntAct's records for PubMed 11042109
